Target: T1, human ILT4 expressed on HEK293 cells (human, UniProt Q8N423 22-597)
T1 construct: also called LILRB2; LIR2
Assay: bifunctional flow cytometry: bispecific bound to HEK293 cells expressing human ILT4, then human PD-L1-msFc detected with PE anti-mouse IgG Fc
Protocol: Binding of bispecific constructs to ILT4 and PD-L1 was assessed using HEK293 cells expressing human ILT4. In brief, dilutions of the bispecific constructs were allowed to bind to the ILT4 expressing cell before adding human PD-L1-msFc that was detected with PE labeled goat anti-mouse IgG Fc-specific probe.

T1 sequence (Q8N423 other isoform, or with tags, fused parts or gaps limits assumed): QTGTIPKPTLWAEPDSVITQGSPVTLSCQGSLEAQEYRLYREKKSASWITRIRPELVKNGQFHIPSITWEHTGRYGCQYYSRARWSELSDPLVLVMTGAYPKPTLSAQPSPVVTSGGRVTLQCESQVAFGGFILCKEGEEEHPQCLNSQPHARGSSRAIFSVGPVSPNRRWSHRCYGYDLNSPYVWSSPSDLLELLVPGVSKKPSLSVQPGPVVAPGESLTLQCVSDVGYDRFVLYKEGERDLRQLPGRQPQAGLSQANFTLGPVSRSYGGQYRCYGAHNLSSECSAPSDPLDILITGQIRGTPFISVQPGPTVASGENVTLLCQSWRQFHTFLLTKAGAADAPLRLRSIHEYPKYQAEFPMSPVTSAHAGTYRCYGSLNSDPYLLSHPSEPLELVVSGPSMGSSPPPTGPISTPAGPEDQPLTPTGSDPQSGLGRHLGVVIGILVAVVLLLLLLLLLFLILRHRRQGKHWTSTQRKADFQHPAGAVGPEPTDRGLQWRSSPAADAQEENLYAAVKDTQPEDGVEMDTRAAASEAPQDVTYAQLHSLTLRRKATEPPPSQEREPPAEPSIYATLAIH

binding result	Binder
binds	9H9-7B1 HL (bispecific antibody, human IgG1, kappa, Tetravalent bispecific: anti-PD-L1 9H9 on a mutated human IgG1 (AQQ Fc) with the 7B1 scFv (VH-VL) at the C-terminus of the heavy chain; also called 9H9 AQQ-7B1 H2L1; PD-L1xILT4 bispecific antibody) heavy: not shown light: DIQMTQSPSTLSASVGDRVTITCRASQSISGWLAWYQQKPGKAPKLLIYKASSLESGVPSRFSGSGSGTEFTLTISSLQPDDFATYYCQQYYGSSRTFGQGTNVEIKRTVAAPSVFIFPPSDEQLKSGTASVVCLLNNFYPREAKVQWKVDNALQSGNSQESVTEQDSKDSTYSLSSTLTLSKADYEKHKVYACEVTHQGLSSPVTKSFNRGEC
binds	9H9-7B1 LH (bispecific antibody, human IgG1, kappa, Tetravalent bispecific as 9H9-7B1 HL, but with the scFv in the VL-VH orientation; also called 9H9 AQQ-7B1 L1H2; PD-L1xILT4 bispecific antibody) heavy: not shown light: DIQMTQSPSTLSASVGDRVTITCRASQSISGWLAWYQQKPGKAPKLLIYKASSLESGVPSRFSGSGSGTEFTLTISSLQPDDFATYYCQQYYGSSRTFGQGTNVEIKRTVAAPSVFIFPPSDEQLKSGTASVVCLLNNFYPREAKVQWKVDNALQSGNSQESVTEQDSKDSTYSLSSTLTLSKADYEKHKVYACEVTHQGLSSPVTKSFNRGEC

— patent US20240417459A1 (CELLDEX THERAPEUTICS, published 2024)
